The values below come from US20210130473A1, “TGFßR1 INHIBITOR-ASGR ANTIBODY CONJUGATES AND USES THEREOF” (Silverback Therapeutics, Inc., priority 2019, published 2021).

Like-named read-outs stand apart in the source and are kept apart here.

In experiment [1] the target is Cynomolgus macaque ASGR1 on CHO-S cells (Cynomolgus macaque). The experiment can be described thus: Guava flow cytometry on CHO-S cells expressing cynomolgus ASGR1. (A flow cytometer gives signals particle by particle.)
For experiment [2] the target is unchanged. The experiment can be described thus: Guava flow cytometry on CHO-S cells expressing cynomolgus ASGR1 (repeat of Table 15).
Experiment [3] has as its target human ASGR1 (asialoglycoprotein receptor 1) on cells (human) (UniProt P07306). In words: flow cytometry on HepG2 cells, anti-human IgG PE secondary, MFI (Geo Mean).
For experiment [4], the target named is T1, rat ASGR1 on CHO-S cells (rat) (UniProt P02706).
T1 sequence (looked up): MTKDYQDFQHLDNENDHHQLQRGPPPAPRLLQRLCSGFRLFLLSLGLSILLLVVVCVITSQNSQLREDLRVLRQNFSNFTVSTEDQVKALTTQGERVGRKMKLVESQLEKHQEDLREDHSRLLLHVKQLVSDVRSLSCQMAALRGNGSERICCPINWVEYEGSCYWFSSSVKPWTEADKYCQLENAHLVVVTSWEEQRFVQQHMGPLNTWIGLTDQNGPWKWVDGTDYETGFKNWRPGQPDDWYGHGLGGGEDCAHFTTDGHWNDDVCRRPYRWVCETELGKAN
The experiment can be described thus: Guava flow cytometry on CHO-S cells expressing rat ASGR1 (repeat of Table 16).

The target of experiment [5] is human ASGR1 (asialoglycoprotein receptor 1) on cells (human) (UniProt P07306). The experiment can be described thus: flow cytometry on HepG2 cells, anti-human IgG PE secondary, MFI (Geo Mean). The source holds these as a separate data set.
human ASGR1 (asialoglycoprotein receptor 1) on cells (human), sequence (P07306 whole entry): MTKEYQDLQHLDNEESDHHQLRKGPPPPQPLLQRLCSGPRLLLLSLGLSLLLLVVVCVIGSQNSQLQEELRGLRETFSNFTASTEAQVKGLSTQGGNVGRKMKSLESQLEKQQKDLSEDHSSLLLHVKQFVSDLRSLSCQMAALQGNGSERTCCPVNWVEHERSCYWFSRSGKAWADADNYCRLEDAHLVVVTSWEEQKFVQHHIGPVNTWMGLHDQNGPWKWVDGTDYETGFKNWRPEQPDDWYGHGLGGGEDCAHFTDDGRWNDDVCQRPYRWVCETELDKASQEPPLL
In experiment [6] the target is T1, rat ASGR1 on CHO-S cells (rat). The experiment can be described thus: Guava flow cytometry on CHO-S cells expressing rat ASGR1.

B1: ASGR1 mAb-A (antibody, from another filing, V domains shown)
VH: QVQLVQSGTEVKKPGASVKVSCKASGYTFTNYDINWVRQATGQGLEWMGWMHPNSGNTGYAQKFQGRVTLTRNTSISTAYMELSSLRSEDTAVYYCASSSGWYYFDYWGQGTLVTVSS
VL: DIVMTQSPDSLAVSLGERATINCKSSQSILHSSNNNNYLAWFQQKPGQPPKLLLYWASTRESGVPDRFSGSGSGTDFTLTISSLQPEDVAVYYCQQYYNTPVTFGPGTKVGIK
As to B1, the concentration giving a half-maximal response (EC50) (in general, the concentration giving half of the maximal effect) in experiment [1] is 1.07 nM; in experiment [2] it was 1.07 nM; in experiment [4] it was 3.22 nM; in experiment [6], 3.22 nM. Besides, the EC50 (read off the curve) (in general, the concentration at which the effect is half-maximal) in experiment [3] stood at 0.6 µg/mL; in experiment [5], 0.5 µg/mL.

B2: ASGR1 mAb-B (antibody, from another filing, V domains shown)
VH: EVQLVESGGGLVKPGGSLRLSCAASGFTFSSYSMNWVRQAPGKGLEWVSSISGSSSYIYYADSVKGRFTISRDNAKNSLYLQMNSLRAEDTAVYFCARGGSRGFDPWGQGTLVTVSS
VL: DIQMTQSPSSLSASVGDRVTITCRASQSITSYLNWYQQKPGKAPKLLIYTASSLQSGVPSRFSGSGSGTDFTLTISSLQPEDFATYYCQQSHSFPFTFGPGTKVDIK
As to B2, the EC50 in experiment [1] was found to be 0.36 nM; in experiment [2] it was 0.36 nM; in experiment [4], 0.38 nM; in experiment [6], 0.38 nM. In experiment [5], this molecule showed an EC50 (read off the curve) of 0.2 µg/mL.
